Test results reported in US20230034768A1 (BIOSION, published 2023).
Read-outs that look alike come from different tables or passages of the source.

T1: Recombinant human RANKL-his protein (R&D, Cat #6449-TEC-010) (human, UniProt O14788 140-317, limits assumed)
T1 sequence (looked up): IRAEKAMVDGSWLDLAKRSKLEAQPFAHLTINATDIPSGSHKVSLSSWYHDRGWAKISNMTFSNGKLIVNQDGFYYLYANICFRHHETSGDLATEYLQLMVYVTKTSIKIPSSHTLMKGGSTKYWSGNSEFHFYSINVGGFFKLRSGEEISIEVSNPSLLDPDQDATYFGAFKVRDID


Tests used:
[1] = biological target: T2, biotin-labeled human RANKL-Fc protein (prepared in house, SEQ ID NO.: 40) (human, biotin-labeled (sites not given)); test: capture ELISA: captured antibody, biotin-labeled human RANKL-Fc, OD(450-630)
T2 construct: also called RANKL-Fc-biotin
Description: (§1) Plates were washed once with wash buffer (PBS+0.05% v/v Tween-20, PBST) and then blocked with 200 μl/well blocking buffer (5% w/v non-fatty milk in PBST) for 2 hours at 37° C. […] After a final wash, plates were incubated with 100 μl/well ELISA substrate TMB (Innoreagents, Cat #TMB-S-002) at room temperature. The reaction was stopped in 3-10 minutes with 50 μl/well 1M H₂SO₄, and the absorbance of each well was read on a microplate reader using dual wavelengths mode with 450 nm for TMB and 630 nm as the reference wavelength. The OD (450-630) values were plotted against antibody concentration. Data were analyzed using Graphpad Prism software and EC₅₀ values were reported.

[2] = biological target: T2, biotin-labeled human RANKL-Fc protein …; test: competitive ELISA: antibody blocks biotin-labeled human RANKL-Fc binding to coated human RANK-Fc
Description: Briefly, human RANK-Fc proteins (prepared in house, SEQ ID NO.: 41) were coated on 96-well micro plates at 2.0 μg/mL in PBS, 100 μl/well, and incubated overnight at 4° C. The next day, plates were washed with wash buffer (PBS+0.05% w/v Tween-20, PBST), and blocked with 5% w/v non-fatty milk in PBST, 200 μl/well, for 2 hours at 37° C.
Plates were washed 4 times using wash buffer, and added and incubated with 100 μl/well of streptavidin conjugated HRP (1:10000 dilution in PBST buffer, Jackson ImmunoResearch Laboratories, Inc., Cat #016-030-084) for 40 minutes at 37° C. Plates were washed again using wash buffer. Finally, TMB was added and the reaction was stopped using 1M H₂SO₄, and the absorbance of each well was read on a microplate reader using dual wavelengths mode with 450 nm for TMB and 630 nm as the reference wavelength. The OD (450-630) values were plotted against antibody concentration. Data were analyzed using Graphpad Prism software and IC₅₀ values were reported.

[3] = biological target: T1, Recombinant human RANKL-his protein …; test: cell-based or functional assay
[4] = biological target: T2, biotin-labeled human RANKL-Fc protein …; test: competitive ELISA: antibody blocks biotin-labeled human RANKL-Fc binding to coated benchmark denosumab
Description: The next day, plates were washed with wash buffer, and blocked with 5% w/v non-fatty milk in PBST, 200 μl/well, for 2 hours at 37° C. […] After incubation at 37° C. for 40 minutes, plates were washed 4 times using wash buffer. Then the plates were added and incubated with 100 μl Peroxidase Streptavidin (1:5000 dilution in PBST buffer, Jackson Immunoresearch, Cat #016-030-084) for 40 minutes at 37° C. Plates were washed again using wash buffer. Finally, TMB was added and the reaction was stopped using 1M H₂SO₄. The absorbance of each well was read on a microplate reader using dual wavelengths mode with 450 nm for TMB and 630 nm as the reference wavelength, and the OD (450-630) values were plotted against antibody concentration. Data were analyzed using Graphpad Prism software and IC₅₀ values were reported.

[5] = biological target: T1, Recombinant human RANKL-his protein …; test: cell-based or functional assay; remark: listed apart in the source
[6] = biological target: T2, biotin-labeled human RANKL-Fc protein …; test: capture ELISA: captured antibody, biotin-labeled human RANKL-Fc, OD(450-630); remark: listed apart in the source
Description: as §1
Cell supernatants were harvested after six days in shaking flasks, spun down to pellet cells, and then chimeric antibodies were purified from cell supernatants as described above. The purified antibodies were tested in the capture ELISA, competitive ELISA assay and Octet affinity test following the protocols in the foregoing Examples.

EC50 [1] [nM]	IC50 [2] [nM]	IC50, RANKL-induced osteoclast differentiation of RAW264.7 cells (pNPP, OD405) [3] [nM]	IC50 [4] [nM]	IC50, RANKL-induced osteoclast differentiation of RAW264.7 cells (pNPP, OD405) [5] [nM]	EC50 [6] [nM]	Binder
0.583	2.1	1.31	–	–	–	mouse anti-RANKL monoclonal antibody B4H5 (antibody, V domains shown, Hybridoma-derived mouse IgG) VH: DVQLQESGPDLVKPSQSLSLTCTVTGYSISSGYSWHWIRQFPGNKLEWMDYIHFSGSTNYNPSLKSRISITRDTSKNQFFLQFISVTTEDTATYYCARSGPSTYVMDYWGQGTSVTVSS VL: DIVMTQSHRFMSTSVGDRVSITCKASQDVGAAVGWYQQKPGQSPKLLIYWASIRDTGVPDRFTGSGSGTDFTLTISNVQSEDLADYFCQHYNSYPLTFGGGTKLEIK
0.0464	0.0365	–	0.164	0.998	0.246	mouse anti-RANKL monoclonal antibody D1E3 (antibody, V domains shown, Hybridoma-derived mouse IgG; also called Mouse D1E3) VH: EVQLVESGGGLVKPGGSLKLSCAASGFTFSRYAMSWVRQTPEKRLEWVAGISSGGTYTYYPDTVKGRFTISRDSAKNILYLQMGSLRSEDSAMYHCARRDYGDVYEWYFDVWGTGTTVTVSS VL: DIVMTQSHKFMSASVGDRVSITCKASQGVRIAVAWYQQKPGQSPKLLIYSASYRYTGVPDRFTGSGSGTDFTFTISSVQAEDLAVYYCQQHHSSPWTFGGGTKLEIK
